Laboratory results from patent publication US20020193329A1 (published 2002).

Target: T1, Her-2/neu peptide on HLA-B*44:02 (human)
T1 peptide: EEYLVPQQGF
Experiment: cytokine release
Procedure: This example describes the charaterization of the epitope recognized by one of the T cell clones described above, 17D5. This clone recognized APC expressing the ICD or full-length Her-2/neu protein. The HLA-restriction element for the clone was determined to be HLA-B4402 by using a panel of allogenic cell lines matched at various HLA alleles with the T cell clone as APC in gamma interferon Elispot assays. This was confirmed by transduction of HLA-B44-negative, Her-2/neu-positive APC with a B4402-recombinant retrovirus to confer recognition. The region of the ICD recognized by the clone was narrowed by using recombinant retroviruses expressing a series of five fragments of the ICD to transduce B44+APC. […] Predicted B44-binding 9 mer and 10 mer peptides from within this fragment were chosen and synthesized. Of the 13 peptides synthesized, one was recognized by the clone and determined to be the epitope. […] The sequence of this naturally processed Her-2/neu epitope is: […] (SEQ ID NO: 3), position 1021-1030 in the Her-2/neu protein sequence.

binding result: recognises
B1: TCR of the 17D5 T cell clone (TCR, V domains shown)
Valpha: AQSVAQPEDQVNVAEGNPLTVKCTYSVSGNPYLFWYVQYPNRGLQFLLKYITGDNLVKGSYGFEAEFNKSQTSFHLKKPSALVSDSALYFCAVRPNSGYSTLTFGKGTMLLVSP
Vbeta: EAQVTQNPRYLITVTGKKLTVTCSQNMNHEYMSWYRQDPGLGLRQIYYSMNVEVTDKGDVPEGYKVSRKEKRNFPLILESPSPNQTSLYFCASSLDWGGLAGGLGTDTQYFGPGTRLTVL
